Data set [1] deals with Bis(5'-adenosyl)-triphosphatase (Homo sapiens) (UniProt P49789). Nature of the data set: Activity at human Fhit expressed in Escherichia coli BL 21 assessed as enzyme Km by Michaelis-Menten equation relative to control.
Data set [2] relates to Nc1ncnc2c1ncn2[C@@H]1O[C@H](CO[P@@](=O)(S)OP(=O)(O)O[P@](=O)(S)OC[C@H]2O[C@@H](n3cnc4c(N)ncnc43)[C@H](O)[C@@H]2O)[C@@H](O)[C@H]1O. As to the kind of experiment: (§1) Activity at human Fhit expressed in Escherichia coli BL21 assessed as enzyme Km by Michaelis-Menten equation.
Data set [3] concerns Nc1ncnc2c1ncn2[C@@H]1O[C@H](CO[P@](=O)(S)OP(=O)(O)O[P@@](=O)(S)OC[C@H]2O[C@@H](n3cnc4c(N)ncnc43)[C@H](O)[C@@H]2O)[C@@H](O)[C@H]1O. The data set is described as §1.
Data set [4] concerns Nc1ncnc2c1ncn2[C@@H]1O[C@H](CO[P@](=O)(S)OP(=O)(O)O[P@](=O)(S)OC[C@H]2O[C@@H](n3cnc4c(N)ncnc43)[C@H](O)[C@@H]2O)[C@@H](O)[C@H]1O. The data set is described as §1.
Data set [5] concerns Nc1ncnc2c1ncn2[C@@H]1O[C@H](CO[P@@](=O)(S)OP(=O)(O)O[P@](=O)(S)OC[C@H]2O[C@@H](n3cnc4c(N)ncnc43)[C@H](O)[C@@H]2O)[C@@H](O)[C@H]1O. Nature of the data set: (§2) Activity at human Fhit expressed in Escherichia coli BL21 assessed as enzyme Kcat by Michaelis-Menten equation.
Data set [6] relates to Nc1ncnc2c1ncn2[C@@H]1O[C@H](CO[P@](=O)(S)OP(=O)(O)O[P@@](=O)(S)OC[C@H]2O[C@@H](n3cnc4c(N)ncnc43)[C@H](O)[C@@H]2O)[C@@H](O)[C@H]1O. The description is as §2.
In data set [7] the test system is Nc1ncnc2c1ncn2[C@@H]1O[C@H](CO[P@](=O)(S)OP(=O)(O)O[P@](=O)(S)OC[C@H]2O[C@@H](n3cnc4c(N)ncnc43)[C@H](O)[C@@H]2O)[C@@H](O)[C@H]1O. Described as §2.
The test system of data set [8] is Nc1ncnc2c1ncn2[C@@H]1O[C@H](CO[P@@](=O)(S)OP(=O)(O)O[P@](=O)(S)OC[C@H]2O[C@@H](n3cnc4c(N)ncnc43)[C@H](O)[C@@H]2O)[C@@H](O)[C@H]1O. Nature of the data set: (§3) Activity at human Fhit expressed in Escherichia coli BL21 assessed as ratio of enzyme Kcat to Km by Michaelis-Menten equation.
In data set [9] the test system is Nc1ncnc2c1ncn2[C@@H]1O[C@H](CO[P@](=O)(S)OP(=O)(O)O[P@@](=O)(S)OC[C@H]2O[C@@H](n3cnc4c(N)ncnc43)[C@H](O)[C@@H]2O)[C@@H](O)[C@H]1O. The data set is described as §3.
The test system of data set [10] is Nc1ncnc2c1ncn2[C@@H]1O[C@H](CO[P@](=O)(S)OP(=O)(O)O[P@](=O)(S)OC[C@H]2O[C@@H](n3cnc4c(N)ncnc43)[C@H](O)[C@@H]2O)[C@@H](O)[C@H]1O. The data set is described as §3.
The test system of data set [11] is Nc1ncnc2c1ncn2[C@@H]1O[C@H](COP(=O)(O)OP(=O)(O)OP(=O)(O)OC[C@H]2O[C@@H](n3cnc4c(N)ncnc43)[C@H](O)[C@@H]2O)[C@@H](O)[C@H]1O. As to the kind of experiment: Activity at human Fhit expressed in Escherichia coli SG100 assessed as enzyme Kcat by Michaelis-Menten equation.
The test system is the same in data set [12]. As to the kind of experiment: (§4) Activity at human Fhit expressed in Escherichia coli SG100 assessed as ratio of enzyme Kcat to Km by Michaelis-Menten equation.
Data set [13] has as its system Nc1ncnc2c1ncn2[C@@H]1O[C@H](CO[P@](=O)(S)OP(=O)(O)OP(=O)(O)OCc2cccc([N+](=O)[O-])c2)[C@@H](O)[C@H]1O. The description is as §4.
The subject of data set [14] is Nc1ncnc2c1ncn2[C@@H]1O[C@H](COP(=O)(O)OP(=O)(O)OP(=O)(O)OC[C@H]2O[C@@H](n3cnc4c(N)ncnc43)[C@H](O)[C@@H]2O)[C@@H](O)[C@H]1O. As to the kind of experiment: (§5) Activity at human Fhit expressed in Escherichia coli SG100 assessed as enzyme Km by Michaelis-Menten equation.
Data set [15] concerns Nc1ncnc2c1ncn2[C@@H]1O[C@H](CO[P@](=O)(S)OP(=O)(O)OP(=O)(O)OCc2cccc([N+](=O)[O-])c2)[C@@H](O)[C@H]1O. The data set is described as §5.
Data set [16] shares this test system. Nature of the data set: Activity at human Fhit expressed in Escherichia coli SG100 assessed as enzyme Vmax by Michaelis-Menten equation.

Bis(5'-adenosyl)-triphosphatase (Homo sapiens), P49789, sequence (P49789 whole entry): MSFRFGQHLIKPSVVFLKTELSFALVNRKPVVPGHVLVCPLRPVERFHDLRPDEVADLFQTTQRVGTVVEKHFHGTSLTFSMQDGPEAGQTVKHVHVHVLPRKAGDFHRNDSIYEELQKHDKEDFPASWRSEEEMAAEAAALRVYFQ
Bis(5'-adenosyl)-triphosphatase (Homo sapiens), sequence (P49789 whole entry, looked up): as the sequence (P49789 whole entry) above

Regarding `Nc1ncnc2c1ncn2[C@@H]1O[C@H](CO[P@@](=O)(S)OP(=O)(O)O[P@](=O)(S)OC[C@H]2O[C@@H](n3cnc4c(N)ncnc43)[C@H](O)[C@@H]2O)[C@@H](O)[C@H]1O`, the fold change (FC) in data set [1] worked out at 2.8.

As for “Bis(5'-adenosyl)-triphosphatase (Homo sapiens), P49789”, the Km in [2] is 5.32 µM; in data set [3], 3.54 µM; in [4], 1.25 µM; in data set [14], 1.9 µM; in data set [15], 2.8 µM. Moreover, the kcat in data set [5] amounted to 8.4 ×10⁻⁴ /s; in data set [6], 4.8 ×10⁻⁴ /s; in [7] it was 29.9 ×10⁻⁴ /s; in data set [11] it was 73 s⁻¹. In addition, the kcat/Km was determined as 1.7 ×10² /M/s in [8]; 1.4 ×10² /M/s in data set [9]; 24 ×10² /M/s in [10]; 3.8 ×10⁷ /M/s in [12]; 0.125 ×10⁶ /s/M in [13]. In addition, the Vmax (10'-6mol/min/ug) in data set [16] turned out to be 0.35.

`Nc1ncnc2c1ncn2[C@@H]1O[C@H](CO[P@](=O)(S)OP(=O)(O)O[P@](=O)(S)OC[C@H]2O[C@@H](n3cnc4c(N)ncnc43)[C@H](O)[C@@H]2O)[C@@H](O)[C@H]1O`: the fold change (FC) in [1] came to 2.8.

Consider `Nc1ncnc2c1ncn2[C@@H]1O[C@H](CO[P@](=O)(S)OP(=O)(O)O[P@@](=O)(S)OC[C@H]2O[C@@H](n3cnc4c(N)ncnc43)[C@H](O)[C@@H]2O)[C@@H](O)[C@H]1O`, for which the fold change (FC) in data set [1] turned out to be 2.8.

Source of the values: ChEMBL document CHEMBL3860051, “Phosphorothioate analogs of P1,P3-di(nucleosid-5'-yl) triphosphates: Synthesis, assignment of the absolute configuration at P-atoms and P-stereodependent recognition by Fhit hydrolase” (Bioorg Med Chem, 2016).
